According to patent US20040235717A1, “Suppression of androgen receptor transactivation through new pathways to ar and ar coactivators and repressors” (priority 2001, published 2004):
“Also recorded” adds a separate entry of the source.

What was measured:
AR transactivation [1] = experiment: AR transactivation reporter assays in SW480.7 / SW480·C7 cells; format: cell-based; conditions: for Effect on ARE reporter activity: SW480·C7 cells
Description: (§1) 37. […] (A) PC3-AR2, SW480·C7, and PC-3 cells were transiently co-transfected with either MMTV-CAT, PSA-CAT, 5XARE-CAT, or (TAT)2-CAT (3 μg), in the presence of AR, Smad3, Smad4 or Smad3/Smad4 as indicated. Each CAT activity is presented relative to the transactivation observed in the absence of Smad3. All values represent the mean±SD of three independent experiments.

AR transactivation [2] = experiment: AR transactivation with Smad3/Smad4, CAT reporters in PC3-AR2, PC-3 and LNCaP cells; format: cell-based, human
Description: 32. […] LNCaP cell were transfected with Smad3 or Smad4 expression vector instead of PC-3(AR)2 cells in experiments otherwise identical with those in A (B), PC-3(AR)2 cells stably transfected with AR were over-expressed with the indicated amounts of Smad3 or Smad4 or SRC-1. 3 μg of MMTV-CAT was used as a reporter plasmid in all experiments. All values represent the averages±SD of four independent experiments. […] PSA expression level was determined by Northern blotting. The probe was obtained from exon 1 of the PSA gene and labeled with [α-^32P] dCTP. A β-actin probe was used as a control for equivalent mRNA loading. (C, Table 1) The RNA samples from (A) were reverse transcribed to cDNAs and all of the samples were subjected to real-time CR using an ABI Prism 7700 Sequence Detection System (Perkin-Elmer Applied bio systems). PCR was performed using the SYBR Green PCR Core Reagents kit (Perkin-Elmer Applied Bio systems). PSA and β-actin forward, reverse primers concentrations were 2.5 μM. To reduce variability between replicates, PCR premixes which contained all reagents except for total RNA were prepared and aliquoted into 1.5 ml microfuge tubes. Specific PCR amplification products were detected by the fluorescent double-stranded DNA-binding dye SYBR Green core reagent kit. Experiments were performed with triplicates for each data point.
as §1
333. Human prostate cancer DU145 cells and PC-3 cells were maintained in Dulbecco's Minimum Essential Medium containing penicillin (25 U/ml), streptomycin (25 μg/ml), and 5% fetal calf serum. Transfections were performed using the calcium phosphate precipitation method and cells were harvested after 24 h for the chloramphenicol acetyltransferase (CAT) assay, as described previously (Kang, et al. (1999) J. Biol. Chem. 274, 8570-8576). The CAT activity was visualized and quantitated by STORM 840 (Molecular Dynamics). At least three independent experiments were carried out in each case. The SW480·C7 cells and PC-3(AR)2 cells are the gifts from Dr. Eric J. Stanbridge and Dr. T. J. Brown

[3] = test system: wtAR, mtARt877a, PR, VDR, ER transactivation; experiment: Steroid receptor transactivation with Smad3 in DU145 cells (wtAR, mtARt877a, PR, VDR, ER); format: cell-based, human
PSA mRNA expression = PSA mRNA expression in LNCaP cells, Northern blot; format: cell-based
AR transactivation [4] = conditions: PC-3 and CV1 cells; Hayes et al.; cited from earlier work

B1: Smad3: a downstream mediator of the TGF-β signaling pathway (protein)
chain: MSSILPFTPPIVKRLLGWKKGEQNGQEEKWCEKAVKSLVKKLKKTGQLDELEKAITTQNVNTKCITIPRSLDGRLQVSHRKGLPHVIYCRLWRWPDLHSHHELRAMELCEFAFNMKKDEVCVNPYHYQRVETPVLPPVLVPRHTEIPAEFPPLDDYSHSIPENTNFPAGIEPQSNIPETPPPGYLSEDGETSDHQMNHSMDAGSPNLSPNPMSPAHNNLDLQPVTYCEPAFWCSISYYELNQRVGETFHASQPSMTVDGFTDPSNSERFCLGLLSNVNRNAAVELTRRHIGRGVRLYYIGGEVFAECLSDSAIFVQSPNCNQRYGWHPATVCKIPPGCNLKIFNNQEFAALLAQSVNQGFEAVYQLTRMCTIRMSFVKGWGAEYRRQTVTSTPCWIELHLNGPLQWLDKVLTQMGSPSIRCSSVS
In the case of B1, the “Effect on ARE reporter activity” value (AR transactivation [1]; MMTV-ARE reporter) is reported as “only enhance MMTV-ARE reporter activity”, the “Effect on ARE reporter activity” value (AR transactivation [1]; PSA-ARE, 5X-ARE and TAT2-ARE reporters) is reported as “some slight repression” and the “Effect on ligand-dependent transactivation of AR” value (AR transactivation [1]; SW480.7 cells, MMTV-CAT) is reported as “increased the ligand-dependent transactivation of AR”. The “Effect on androgen-activated AR transactivation” value (AR transactivation [2]; PC3-AR2, MMTV-CAT, 10^−8 M DHT) was “further enhanced”, the “Effect on ARE reporters (MMTV, PSA, 5X-ARE, TAT2-ARE)” value (AR transactivation [2]; PC-3 cells) was “enhance all these reporters” and the “Enhancement of AR transactivation compared to ARA70” value [3] was “relatively stronger enhancement effect”. For the same molecule, the “Enhancement of wtAR transactivation” value ([3]; 10 nM DHT) was 3-4 fold, the “Effect on transactivation of steroid receptors” value ([3]; 10^−8 M cognate ligand) was “significantly enhance the transactivation of AR, the progesterone receptor, and VDR” and the “Effect on PSA expression” value (PSA mRNA expression; absence of androgen) was “failed to induce PSA expression”. For the same molecule, the “Effect on androgen-induced PSA mRNA expression” value (PSA mRNA expression; presence of androgen) was “further enhance PSA expression; also recorded: further enhances DHT-induced PSA mRNA expression” and the “Effect on AR transactivation” value (AR transactivation [4]) was “suppress AR transactivation”.
